Assay results published in patent publication US20230374071A1, “COMPOSITIONS FOR INDUCING URINARY VOIDING AND DEFECATION” (Dignify Therapeutics, LLC, priority 2020, published 2023).
Starred links: 1 amine or outer side, 2 acyl side, 3 side chain; linkers in the order of their positions; H or OH if unused. Non-standard residues stand in square brackets, D forms with d. No end group written: not given here. gc = gamma constrained Gly-(R-gamma-lactam)-Leu moiety, (S)-2-((R)-3-amino)-2-oxopyrrolidin-1-yl)-4-methylpentanoyl, between Val and the C-terminal residue, CC(C)C[C@@H](C(=O)[*:2])N1CC[C@@H](N[*:1])C1=O; Nle = CCCC[C@H](N)C(=O)O; βAla = NCCC(=O)O

T1: human neurokinin 2 receptor (human, UniProt P21452 1-398)
T1 sequence (looked up): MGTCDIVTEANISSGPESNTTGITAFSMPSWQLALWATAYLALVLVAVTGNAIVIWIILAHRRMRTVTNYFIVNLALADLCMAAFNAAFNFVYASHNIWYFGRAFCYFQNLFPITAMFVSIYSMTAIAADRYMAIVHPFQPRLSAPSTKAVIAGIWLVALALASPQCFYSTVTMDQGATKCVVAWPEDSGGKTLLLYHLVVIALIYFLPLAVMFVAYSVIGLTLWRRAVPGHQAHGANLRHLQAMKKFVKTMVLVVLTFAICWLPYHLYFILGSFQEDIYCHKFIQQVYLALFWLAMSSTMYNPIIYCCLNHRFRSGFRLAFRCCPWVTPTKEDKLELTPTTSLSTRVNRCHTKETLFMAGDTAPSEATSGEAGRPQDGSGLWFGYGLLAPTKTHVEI

B1: Compound E (Asp-Arg-Phe-Val-gc-Met-NH2) (peptide)
peptide: DRFV[gc]M-NH2
modifications: N-terminus assumed
SMILES: CSCC[C@H](NC(=O)[C@H](CC(C)C)N1CC[C@@H](NC(=O)[C@@H](NC(=O)[C@H](Cc2ccccc2)NC(=O)[C@H](CCCNC(=N)N)NC(=O)[C@@H](N)CC(=O)O)C(C)C)C1=O)C(N)=O
B2: Compound J (Lys-Asp-Ser-Phe-Val-(β-Ala)-Leu-Nle-NH2) (peptide)
peptide: KDSFV[βAla]L[Nle]-NH2
modifications: N-terminus assumed
SMILES: CCCC[C@H](NC(=O)[C@H](CC(C)C)NC(=O)CCNC(=O)[C@@H](NC(=O)[C@H](Cc1ccccc1)NC(=O)[C@H](CO)NC(=O)[C@H](CC(=O)O)NC(=O)[C@@H](N)CCCCN)C(C)C)C(N)=O
B3: Compound F (Asp-Arg-Phe-Val-gc-Nle-NH2) (peptide)
peptide: DRFV[gc][Nle]-NH2
modifications: N-terminus assumed
SMILES: CCCC[C@H](NC(=O)[C@H](CC(C)C)N1CC[C@@H](NC(=O)[C@@H](NC(=O)[C@H](Cc2ccccc2)NC(=O)[C@H](CCCNC(=N)N)NC(=O)[C@@H](N)CC(=O)O)C(C)C)C1=O)C(N)=O
B4: Compound G (Lys-Asp-Ser-Phe-Val-gc-Nle-NH2) (peptide)
peptide: KDSFV[gc][Nle]-NH2
modifications: N-terminus assumed
SMILES: CCCC[C@H](NC(=O)[C@H](CC(C)C)N1CC[C@@H](NC(=O)[C@@H](NC(=O)[C@H](Cc2ccccc2)NC(=O)[C@H](CO)NC(=O)[C@H](CC(=O)O)NC(=O)[C@@H](N)CCCCN)C(C)C)C1=O)C(N)=O

biological target: T2, human neurokinin 1 receptor (human, UniProt P25103 1-407); assay: cell-based or functional assay
T2 sequence (P25103 whole entry): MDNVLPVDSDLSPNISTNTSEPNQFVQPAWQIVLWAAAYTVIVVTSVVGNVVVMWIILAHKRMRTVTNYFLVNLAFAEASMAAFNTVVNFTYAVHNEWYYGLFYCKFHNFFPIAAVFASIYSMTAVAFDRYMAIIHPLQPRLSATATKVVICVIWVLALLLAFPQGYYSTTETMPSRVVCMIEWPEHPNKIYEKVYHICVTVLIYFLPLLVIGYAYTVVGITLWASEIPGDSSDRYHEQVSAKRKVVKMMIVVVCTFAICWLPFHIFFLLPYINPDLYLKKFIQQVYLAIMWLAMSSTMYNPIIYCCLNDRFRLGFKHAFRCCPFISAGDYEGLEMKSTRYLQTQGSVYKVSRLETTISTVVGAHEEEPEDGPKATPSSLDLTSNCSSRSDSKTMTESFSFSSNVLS

| hNK1R pEC50 (intracellular calcium mobilization, FLIPR, CHO cells) | Binder |
| --- | --- |
| 7.76 | B1 |
| 6.52 | B2 |
| 6.63 | B3 |
| 5.79 | B4 |

biological target: T1, human neurokinin 2 receptor; assay: cell-based or functional assay

| NK2R/NK1R selectivity ratio [fold] | hNK2R pEC50 (intracellular calcium mobilization, FLIPR, CHO cells) | Binder |
| --- | --- | --- |
| 90 | 9.71 | B1 |
| 23 | 7.88 | B2 |
| 93 | 8.6 | B3 |
| 206 | 8.11 | B4 |

biological target: T2, human neurokinin 1 receptor; assay: cell-based or functional assay; remark: another data set of the same source

| maximal calcium response | Binder |
| --- | --- |
| ≥ 85 % maximal response compared to Substance P | B1 |
| ≥ 85 % maximal response compared to Substance P | B2 |
| ≥ 85 % maximal response compared to Substance P | B3 |
| ≥ 73 % maximal response compared to Substance P | B4 |

biological target: T1, human neurokinin 2 receptor; assay: cell-based or functional assay; remark: another data set of the same source

| maximal calcium response | Binder |
| --- | --- |
| ≥ 85 % maximal response compared to Neurokinin A | B1 |
| ≥ 85 % maximal response compared to Neurokinin A | B2 |
| ≥ 85 % maximal response compared to Neurokinin A | B3 |
| ≥ 85 % maximal response compared to Neurokinin A | B4 |
